Test results reported in patent US8003609B2, “Method for ameliorating pain by modification of NMDA receptors through inhibition of Src” (The Hospital for Sick Children, priority 2004, dated 2011).

Assays:
[1] = system: LTP in CA1 neurons; details: cited from earlier work
[2] = system: AMPA receptor; assay: mEPSC whole cell recordings in cultured hippocampal neurons, AMPA receptor component; assay type: cell-based, rat; details: under the recording conditions used
Description: (§1) Fetal rat hippocampal neurons were prepared, cultured, and used for electrophysiological recordings 12-17 days after plating. Methods for whole cell recordings are described in Pelkey et al. (Neuron 34:127-138 2002).
(§2) In contrast, in control experiments administering EPQ(pY)EEIPIA (SEQ ID NO:5) increased the NMDAR component of mEPSCs by 172±28% and application of Src40-58 decreased the NMDAR component to 56±4% (FIGS. 5D-F). […] Composite traces are shown in black, the NMDAR component in dark grey, and the AMPAR component in light grey. Scale bars are 50 ms/10 pA. […] NMDA component data were calculated as Q20′/Q2′, and AMPA component data were calculated as A20′/A2′. […] An * indicates a significant difference, Student's t-test, p<0.05. Taking our results together, it is concluded that Src-dependent regulation of the activity of NMDARs depends on expression of ND2 through its anchoring of Src to the NMDAR complex.

[3] = molecular target: T1, interaction between Src and ND2 (Rattus norvegicus, UniProt P11662); assay: co-immunoprecipitation of ND2 by anti-Src from PSD proteins; assay type: binding; details: PSD proteins incubated with peptide
T1 construct: from tissue; host or cells: rat brain post-synaptic density fraction
T1 sequence (P11662 1-346): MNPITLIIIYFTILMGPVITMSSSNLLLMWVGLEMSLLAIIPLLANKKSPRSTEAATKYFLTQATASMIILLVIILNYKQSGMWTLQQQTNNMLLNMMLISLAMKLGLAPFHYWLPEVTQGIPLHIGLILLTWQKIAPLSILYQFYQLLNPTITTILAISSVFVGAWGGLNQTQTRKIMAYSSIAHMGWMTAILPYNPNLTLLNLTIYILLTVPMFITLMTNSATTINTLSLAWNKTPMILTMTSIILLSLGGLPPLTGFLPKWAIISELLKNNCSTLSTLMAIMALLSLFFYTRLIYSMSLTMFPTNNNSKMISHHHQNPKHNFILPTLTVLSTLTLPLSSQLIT
Description: (§3) Detailed protocols for in vitro binding assays, pull down assays, immunoblotting, and co-immunoprecipitation techniques can be found in Pelkey et al. (Neuron 34:127-138 2002).
(§4) Post-synaptic density proteins (Kennedy et al. Proceedings of the National Academy of Science USA 80:7357-7361 1983) were prepared from rat brain as described in detail (Pelkey et al. Neuron 34:127-138 2002). Cellular fractionation of rat brain tissue into nuclear, heavy mitochondrial, light mitochondrial, microsomal, and cytosolic fractions was performed by differential centrifugation of tissue homogenate in 0.25 M sucrose/10 mM HEPES-NaOH, 1 mM EDTA, pH 7.4 with 2 μg each of aprotinin, pepstatin A, and leupeptin (Sigma, St. Louis, Mo.) at 4° C. Nuclei were pelleted by centrifugation at 1 000 g for 10 minutes, the supernatant was removed and spun at 3 000 g for 10 minutes to obtain a heavy mitochondrial pellet. The supernatant was removed and spun at 16 000 g for 15 minutes to obtain a light mitochondrial pellet. The supernatant was removed and spun at 100 000 g for 1 hour to obtain a microsomal pellet and the cytosolic fraction. All pellets were then resuspended in RIPA buffer (50 mM Tris pH 7.6, 150 mM NaCl, 1 mM EDTA, 1% NP-40, 2.5 mg/ml NaDOC, 1 mM Na3VO4 1 mM PMSF, and 2 μg/ml each of protease inhibitors). The light mitochondrial fraction was used in subsequent experiments. […]

[4] = molecular target: T2, interaction between the ND2.1-GST and Src unique domain proteins (Homo sapiens, UniProt P03891, A265T); assay: ND2.1-GST probed with biotinylated Src unique domain in the presence of peptide or antibody; assay type: binding; details: in vitro, ND2.1-GST incubated with peptide
T2 construct: made in house; host or cells: BL21 bacteria
T2 sequence (P03891 239-318 A265T): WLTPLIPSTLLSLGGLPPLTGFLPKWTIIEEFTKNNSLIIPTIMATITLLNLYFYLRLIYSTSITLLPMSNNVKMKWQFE
Text: as §3
ND2 acts as an adapter protein for Src. […] Furthermore, the effect of Src40-58 on the interaction between Src and ND2 was examined (FIGS. 4D and 4E). […] Thus, it was concluded that amino acids 40-58 of Src interact with the region spanned by ND2.1, thereby mediating the binding between the Src unique domain and ND2.

[5] = molecular target: T3, ND2 association with NMDAR complexes (Rattus norvegicus, UniProt P11662); assay: co-immunoprecipitation of ND2 with NMDARs from PSD proteins; assay type: binding
T3 construct: from tissue; host or cells: rat brain post-synaptic density fraction
Description: as §3, §4

[6] = system: NMDAR; assay: mEPSC whole cell recordings in cultured hippocampal neurons, NMDAR component; assay type: cell-based, rat
Description: as §1, §2

[7] = molecular target: T4, association of Src with the NMDAR complexes (Rattus norvegicus, UniProt P11662); assay: co-immunoprecipitation of Src with NMDARs from PSD proteins; assay type: binding
T4 construct: from tissue; host or cells: rat brain post-synaptic density fraction
Description: as §3, §4

Substance: Src40-58: peptide comprising amino acid residues 40-58 of SEQ ID NO:4 (Src) (PASADGHRGPSAAFAPAAA; listed as Homo sapiens)
- LTP in CA1 neurons [1]: prevented
- AMPA receptor component of the mEPSCs [2]: neither of these reagents affected
- co-immunoprecipitation of ND2 by anti-Src [3]: prevented
- immunoprecipitation of Src from PSDs [3]: did not affect
- effect on ND2.1-GST pulling down the Src unique domain protein [4]: prevented
- co-immunoprecipitation of ND2 with NMDARs [5]: not affected
- NMDAR component of mEPSCs, decreased to ([6]; control experiments, cultured hippocampal neurons): 56±4%
- NMDAR component of the mEPSCs ([6]; neurons treated with chloramphenicol for 48 hours): not affected
- co-immunoprecipitation of Src with NMDARs [7]: suppressed
